In patent US11499162B2, “Plants having increased tolerance to herbicides” (BASF SE, priority 2016, dated 2022):
Residue numbers refer to the chain shown, from its start. In names and notes the source's numbering stands.

Type: biochemical
Details: pH 7.2
Procedure, shortened: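 E. coli resting cells expressing His-tagged TriA incubated with azines, melamine or atrazine. Enzyme in 25 mM sodium phosphate pH 7.2 at 30 °C, substrate 1–10 nM. Loss of parent and formation of OH-metabolite followed by UPLC-HR-MS; % degradation relative to empty-vector cells.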

B1: D250N: mutated TriA variant of SEQ ID NO: 2 (protein)
chain: MQTLSIQHGTLVTMDQYRRVLGDSWVHVQDGRIVALGVHAESVPPPADRVIDARGKVVLPGFINAHTHVNQILLRGGPSHGRQLYDWLFNVLYPGQKAMRPEDVAVAVRLYCAEAVRSGITTINDNADSAIYPGNIEAAMAVYGEVGVRVVYARMFFDRMDGRIQGYVDALKARSPQVELCSIMEETAVAKDRITALSDQYHGTAGGRISVWPAPAITPAVTVEGMRWAQAFARDRAVMWTLHMAESDHNERLHWMSPAEYMECYGLLDERLQVAHCVYFDRKDVRLLHRHNVKVASQVVSNAYLGSGVAPVPEMVERGMAVGIGTDDGNCNDSVNMIGDMKFMAHIHRAVHRDADVLTPEKILEMATIDGARSLGMDHEIGSIETGKRADLILLDLRHPQTTPHHHLAATIVFQAYGNEVDTVLIDGNVVMENRRLSFLPPERELAFLEEAQSRATAILQRANMVANPAWRSL
modifications: Pseudomonas
Degradation in % of 6-cyclopentyl-N4-(2,3,4,5,6-pentafluorophenyl)-1,3,5-triazine-2,4-diamine: 1% | Degradation in % of Melamine: 3%

B2: E251D: mutated TriA variant of SEQ ID NO: 2 (protein)
chain: B1 chain with N250D, E251D
modifications: Pseudomonas
Degradation in % of 6-cyclopentyl-N4-(2,3,4,5,6-pentafluorophenyl)-1,3,5-triazine-2,4-diamine: 35% | Degradation in % of Melamine: 100%

B3: N70V: mutated TriA variant of SEQ ID NO: 2 (protein)
chain: B1 chain with N70V, N250D
modifications: Pseudomonas
Degradation in % of 6-cyclopentyl-N4-(2,3,4,5,6-pentafluorophenyl)-1,3,5-triazine-2,4-diamine: 4% | Degradation in % of Melamine: 0%
